The nature of this series: protein stability index of a GFP-peptide fusion (yeast GPS) (PSI 1-4); higher = more stable; sorted into four equal gates, so the index is relative within each strain. The gist of the method: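 Yeast carrying a pooled library were grown to mid-log phase in leucine-free medium. Each library plasmid expresses Cherry and has a tiled 17-residue yeast protein peptide fused downstream of GFP. Cells were sorted into four equal gates by GFP/Cherry ratio, and plasmids from each gate were PCR-amplified, Illumina-sequenced and assigned to strains by barcode. Summing, across gates, the read frequency times the gate number gave each peptide's protein stability index.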

± gives the uncertainty stated by the source.

Turning to EKRHKNVPVHVSPAFRV [RPS11A], the protein stability index (doa10∆) was determined as 1.8 ± 0.051, the protein stability index (pdr5∆) was 2.72 ± 0.077, the protein stability index (san1∆) amounted to 2.9 ± 0.07 and the protein stability index (ubr1∆) was 2.75 ± 0.053.
In the case of EKSTQLQQKHELDTASR [YGR119C/NUP57], the protein stability index is 2.95 ± 0.044 (doa10∆), 3.06 ± 0.039 (pdr5∆), 2.85 ± 0.029 (san1∆) and 3.21 ± 0.031 (ubr1∆).
Consider EKTFLHLPCTIEAEEAE [RPN8], for which the protein stability index reads like this: (doa10∆) 1.56 ± 0.078; (pdr5∆) 2.05 ± 0.071; (san1∆) 2.48 ± 0.12; (ubr1∆) 2.48 ± 0.07.
The sequence EKTGKSASLKKIQQHNT [BRR2] returned a protein stability index (pdr5∆) of 2.96 ± 0.2.
EKTMVKKNLGRLTRLWI [PRP8]: the protein stability index runs as follows: (doa10∆) 2.28 ± 0.13; (pdr5∆) 3.07 ± 0.12; (san1∆) 1.45 ± 0.14; (ubr1∆) 1.67 ± 0.2.
As to EKWISSKNSKLSIICVG [SIR3], the protein stability index (doa10∆) worked out at 1.82 ± 0.091, the protein stability index (pdr5∆) stood at 1.52 ± 0.075, the protein stability index (san1∆) was found to be 1.37 ± 0.17 and the protein stability index (ubr1∆) worked out at 1.23 ± 0.073.
On to EKWLLNQIPVTEHSKVT [SRB6], for which the protein stability index by setting is: (doa10∆) 1.9 ± 0.051; (pdr5∆) 2.6 ± 0.068; (san1∆) 1.99 ± 0.12; (ubr1∆) 2.37 ± 0.057.
On to ELALKTLSKTTDSSALT [PRE9], for which the protein stability index is, setting by setting: (doa10∆) 2.62 ± 0.057; (pdr5∆) 2.1 ± 0.06; (san1∆) 2.54 ± 0.065; (ubr1∆) 2.73 ± 0.043.
On to ELAQDPQTMEHYKQQIA [YCS4], for which the protein stability index (doa10∆) is 2.31 ± 0.055, the protein stability index (pdr5∆) is 2.65 ± 0.077, the protein stability index (san1∆) is 2.1 ± 0.1 and the protein stability index (ubr1∆) turned out to be 2.4 ± 0.06.
The sequence ELDQEYRSCETQDESEI [SMC4] returned a protein stability index (doa10∆) of 3.11 ± 0.12, a protein stability index (pdr5∆) of 3.24 ± 0.21, a protein stability index (san1∆) of 2.67 ± 0.19 and a protein stability index (ubr1∆) of 3.31 ± 0.091.
For ELGVSIYDFPGTPEATK [NUT2], the protein stability index (doa10∆) is 2.92 ± 0.076, the protein stability index (pdr5∆) came out at 3.06 ± 0.098, the protein stability index (san1∆) came out at 3.06 ± 0.078 and the protein stability index (ubr1∆) is 3.04 ± 0.048.
The like results for ELKEITSLPDWCQEAFP [BRR2] were, in that order, 2.86 ± 0.069, 2.73 ± 0.076, 3.11 ± 0.064 and 3.08 ± 0.046.
The like results for ELKNELAKTKENYDAKI [YIL149C/MLP2] were, in that order, 3.22 ± 0.073, 3.43 ± 0.071, 3.15 ± 0.052 and 3.08 ± 0.076.
Turning to ELKYQRSLRATAEERVG [RPL15A], the protein stability index by setting is: (doa10∆) 1.27 ± 0.083; (pdr5∆) 1.48 ± 0.11; (san1∆) 1.67 ± 0.19; (ubr1∆) 1.09 ± 0.054.
The like results for ELLETVSLTKRKQEREI [YIL149C/MLP2] were, in that order, 1.43 ± 0.095, 1.61 ± 0.07, 1.5 ± 0.19 and 1.12 ± 0.036.
In the case of ELLIYKKSQCKKKTTLE [YIL149C/MLP2], the protein stability index runs as follows: (doa10∆) 3.03 ± 0.21; (pdr5∆) 3.29 ± 0.13; (san1∆) 2.95 ± 0.083; (ubr1∆) 3.19 ± 0.15.
The like results for ELNDLKWGRNQPVNINL [YMR129W/POM152] were, in that order, 2.8 ± 0.1, 2.72 ± 0.086, 2.83 ± 0.11 and 2.56 ± 0.068.
The like results for ELNIIPRDLLRVIIQEL [PRP28] were, in that order, 1.15 ± 0.062, 1.4 ± 0.061, 1.38 ± 0.21 and 1.15 ± 0.045.
In the case of ELPTQLALEIIVRPAKG [RRP46], the protein stability index is, setting by setting: (doa10∆) 1.52 ± 0.041; (pdr5∆) 1.57 ± 0.044; (san1∆) 1.49 ± 0.079; (ubr1∆) 1.84 ± 0.045.
As to ELQMRSFLKEGDLLNAE [RRP4], the protein stability index runs as follows: (doa10∆) 2.71 ± 0.071; (pdr5∆) 3.27 ± 0.11; (san1∆) 3.07 ± 0.087; (ubr1∆) 3.23 ± 0.08.
As for ELSIRDVTHTLGMLDDN [SMC4], the protein stability index reads like this: (doa10∆) 3.13 ± 0.091; (pdr5∆) 3.04 ± 0.082; (san1∆) 3.22 ± 0.049; (ubr1∆) 3.27 ± 0.097.
Turning to ELSKSRALQENGIIMNG [YMR153W/NUP53], the protein stability index came to 2.63 ± 0.16 (doa10∆), 2.85 ± 0.13 (pdr5∆), 2.64 ± 0.16 (san1∆) and 3.17 ± 0.15 (ubr1∆).
ELSVTGSAINHHRIFDS [YMR129W/POM152]: the protein stability index runs as follows: (doa10∆) 3.02 ± 0.12; (pdr5∆) 3.24 ± 0.1; (san1∆) 2.91 ± 0.12; (ubr1∆) 2.93 ± 0.052.
ELSVVLSGIIQDIYYLA [RRI2] yielded a protein stability index (doa10∆) of 2.32 ± 0.12, a protein stability index (pdr5∆) of 2.24 ± 0.14, a protein stability index (san1∆) of 2.02 ± 0.13 and a protein stability index (ubr1∆) of 2.6 ± 0.092.
Turning to ELVRLLIIDEIHLLHDD [BRR2], the protein stability index was 2.17 ± 0.11 (doa10∆), 1.63 ± 0.075 (pdr5∆), 1.5 ± 0.1 (san1∆) and 1.97 ± 0.063 (ubr1∆).
Turning to ELYEVDVLKVNTLVRPN [RPL25], the protein stability index by setting is: (doa10∆) 2.52 ± 0.095; (pdr5∆) 2.67 ± 0.099; (san1∆) 2.72 ± 0.12; (ubr1∆) 2.87 ± 0.088.
As for EMEVDAEGEEVEVKAEI [RPN1], the protein stability index runs as follows: (doa10∆) 3.48 ± 0.091; (pdr5∆) 3.74 ± 0.24; (san1∆) 3.55 ± 0.093; (ubr1∆) 3.39 ± 0.079.

For the origin of these results see the supplement of paper PMC9732359.
